The target of assay [1] is total gliadin fraction (Triticum aestivum). Nature of the assay: turbidimetry; optical density at 540 nm after 30 min of mixing at room temperature; gliadins constant at 1 mg/mL, PINA 0 to 0.1 mg/mL; 20 mM malate pH 5, with or without 0.1 M NaCl; Hill ligand-binding model.
Assay [2] has the same target. Nature of the assay: turbidimetry; optical density at 540 nm after 30 min of mixing at room temperature; gliadins constant at 1 mg/mL, PINA 0 to 0.1 mg/mL; 20 mM citrate pH 5, with or without 0.1 M NaCl; Hill ligand-binding model.
Assay [3] addresses α-gliadin (Triticum aestivum). Nature of the assay: SPR; α-gliadin, γ-gliadin or (PQQPY)8 covalently bound to a CM5 chip (EDC/NHS, 10 mM acetate pH 4.7); PINA flowed over at 10 μL/min, 25°C, 10 mM Hepes pH 7.4, 150 mM NaCl, 3.4 mM EDTA, 0.005% P20; global kinetic fit, 1:1 Langmuir model. In general terms: Surface plasmon resonance follows binding to a sensor surface in real time, without labels.

Assay [4] concerns the target γ-gliadin (Triticum aestivum) (UniProt P08453). The description is as above.
The target in assay [5] is total gliadin fraction (Triticum aestivum). Description: turbidimetry; optical density at 540 nm after 30 min of mixing at room temperature; gliadins constant at 1 mg/mL, PINA 0 to 0.1 mg/mL; 20 mM Tris-HCl pH 7.2, with or without 0.1 M NaCl; Hill ligand-binding model.

Data on one molecule can be found in article PMC7523994.

Usually Kd stands for the free concentration of one partner at which half of the binding sites on the other are occupied at equilibrium, for simple one-to-one binding. Low readings indicate a tighter complex, high ones a looser complex. Usually koff stands for the rate constant with which the complex falls apart. A lower koff goes with a long-lived complex. One may read the kon as the second-order rate constant of association. Read a low kon as slower complex formation.

γ-gliadin (Triticum aestivum), sequence (P08453 20-327): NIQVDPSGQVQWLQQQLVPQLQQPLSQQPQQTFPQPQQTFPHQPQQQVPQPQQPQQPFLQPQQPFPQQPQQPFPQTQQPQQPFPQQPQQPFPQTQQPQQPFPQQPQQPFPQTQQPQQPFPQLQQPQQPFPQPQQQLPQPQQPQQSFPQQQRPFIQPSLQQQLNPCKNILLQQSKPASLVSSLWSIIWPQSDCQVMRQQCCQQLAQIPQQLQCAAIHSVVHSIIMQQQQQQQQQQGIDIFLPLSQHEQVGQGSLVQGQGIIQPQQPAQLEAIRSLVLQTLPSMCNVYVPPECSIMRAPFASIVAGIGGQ

B1: puroindoline A (natural protein)
chain: DVAGGGGAQQCPVETKLNSCRNYLLDRCSTMKDFPVTWRWWKWWKGGCQELLGECCSRLGQMPPQCRCNIIQGSIQGDLGGIFGFQRDRASKVIQEAKNLPPRCNQGPPCNIPGTIGYYW
As for B1, the Kd in assay [1] turned out to be 400 nM; in assay [2] it was 600 nM; in assay [3] it was 4450 nM; in assay [4] it was 630 nM; in assay [5], 1000 nM. Further, the off-rate constant (koff) came to 0.00255 s⁻¹ in assay [3] and 0.00185 s⁻¹ in assay [4]. Further, the kon in assay [3] was 450 M⁻¹ s⁻¹; in assay [4], 3600 M⁻¹ s⁻¹. The figures for the response at equilibrium at 2.5 μM PINA in assay [3] and in assay [4] were 160 RU and 34 RU, respectively.
